Data set [1] deals with HeLa Kyoto. The experiment in a line: solubility in G1/S (NP-40 vs SDS abundance) (log2 ratio); higher = more soluble. Conditions: cell cycle stage: G1/S.
In data set [2] the test system is HeLa Kyoto. Put plainly: melting temperature (median over replicates), in situ; higher = more thermally stable.
Data set [3] has as its system HeLa Kyoto. Put plainly: solubility change mitosis vs G1/S (difference of NP-40 vs SDS log2 ratios) (log2 ratio difference); higher = more soluble in mitosis.
Data set [4] has as its system HeLa Kyoto. Put plainly: thermal stability score vs G1/S (z-score of summed log2 fold changes over temperatures); higher = more thermally stable than in G1/S.
The mark [5] stands for this setting: cell cycle stage: early G1 (4.5 h after nocodazole release).
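For melting temperature (median over replicates), in situ in this document: HeLa Kyoto cells synchronized by double thymidine or nocodazole block, proteins quantified by TMT10plex mass spectrometry, three independent biological replicates.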
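For solubility change mitosis vs G1/S (difference of NP-40 vs SDS log2 ratios) in this document: synchronized HeLa Kyoto cells (double thymidine block for G1/S, nocodazole release for mitosis), protein amounts in NP-40 versus SDS lysates quantified by mass spectrometry, three biological replicates.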
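For solubility in G1/S (NP-40 vs SDS abundance) in this document: HeLa Kyoto cells arrested at G1/S by double thymidine block, proteins quantified by TMT10plex mass spectrometry in mild NP-40 versus SDS extracts, three biological replicates.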
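For thermal stability score vs G1/S (z-score of summed log2 fold changes over temperatures) in this document: synchronized HeLa Kyoto cells, proteins quantified by TMT10plex mass spectrometry, three biological replicates, mitosis taken 0.5 h after nocodazole release, G1/S directly after double thymidine block.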

Consider “MSQAVQTNGTQPLSKTWELSLYELQRTPQEAITDGLEIVVSPRSLHSELMCPICLDMLKNTMTTKECLHRFCADCIITALRSGNKECPTCRKKLVSKRSLRPDPNFDALISKIYPSRDEYEAHQERVLARINKHNNQQALSHSIEEGLKIQAMNRLQRGKKQQIENGSGAEDNGDSSHCSNASTHSNQEAGPSNKRTKTSDDSGLELDNNNAAMAIDPVMDGASEIELVFRPHPTLMEKDDSAQTRYIKTSGNATVDHLSKYLAVRLALEELRSKGESNQMNLDTASEKQYTIYIATASGQFTVLNGSFSLELVSEKYWKVNKPMELYYAPTKEHK [RNF2]”, for which the “solubility in G1/S (log2)” value in the data set on HeLa Kyoto [1] is -0.307. Moreover, the results for the melting temperature in the data set on HeLa Kyoto [2] (cell cycle stage: G1/S) and with HeLa Kyoto [2] (cell cycle stage: mitosis) were 49.2 °C and 51.7 °C, respectively. Moreover, the “solubility change mitosis (log2)” value in the data set on HeLa Kyoto [3] came out at 0.211. Besides, the figures for the thermal stability score in the data set on HeLa Kyoto [4] (setting [5]) and in the data set with HeLa Kyoto [4] (cell cycle stage: mitosis) were 0.412 and 0.728, respectively.
For “MSQPGIPASGGAPASLQAQNGAALASGSPYTNGPVQNALLSSQESVSQGYNFQLPGSYPHPIPAKTLNPVSGQSNYGGSQGSGQTLNRPPVASNPVTPSLHSGPAPRMPLPASQNPATTPMPSSSFLPEANLPPPLNWQYNYPSTASQTNHCPRASSQPTVSGNTSLTTNHQYVSSGYPSLQNSFIKSGPSVPPLVNPPLPTTFQPGAPHGPPPAGGPPPVRALTPLTSSYRDVPQPLFNSAVNQEGITSNTNNGSMVVHSSYDEIEGGGLLATPQLTNKNPKMSRSVGYSYPSLPPGYQNTTPPGATGVPPSSLNYPSGPQAFTQTPLGANHLTTSMSGLSLQPEGLRVVNLLQERNMLPSTPLKPPVPNLHEDIQKLNCNPELFRCTLTSIPQTQALLNKAKLPLGLLLHPFKDLVQLPVVTSSTIVRCRSCRTYINPFVSFLDQRRWKCNLCYRVNDVPEEFLYNPLTRVYGEPHRRPEVQNATIEFMAPSEYMLRPPQPPVYLFVFDVSHNAVETGYLNSVCQSLLDNLDLLPGNTRTKIGFITFDSTIHFYGLQESLSQPQMLIVSDIEDVFIPMPENLLVNLNESKELVQDLLKTLPQMFTKTLETQSALGPALQAAFKLMSPTGGRMSVFQTQLPTLGVGALKPREEPNHRSSAKDIHMTPSTDFYKKLALDCSGQQVAVDLFLLSGQYSDLASLGCISRYSAGSVYYYPSYHHQHNPVQVQKLQKELQRYLTRKIGFEAVMRIRCTKGLSIHTFHGNFFVRSTDLLSLPNVNPDAGYAVQMSVEESLTDTQLVSFQSALLYTSSKGERRIRVHTLCLPVVSTLNDVFLGADVQAISGLLANMAVDRSMTASLSDARDALVNAVIDSLSAYRSSVLSNQQPGLMVPFSLRLFPLFVLALLKQKSFQTGTNARLDERIFAMCQVKNQPLVYLMLTTHPSLYRVDNLSDEGALNISDRTIPQPPILQLSVEKLSRDGAFLMDAGSVLMLWVGKNCTQNFLSQVLGVQNYASIPQPMTDLPELDTPESARIIAFISWLREQRPFFPILYVIRDESPMKANFLQNMIEDRTESALSYYEFLLHIQQQVNK [SEC24A]”, the “solubility in G1/S (log2)” value in the data set with HeLa Kyoto [1] was 0.00033. Also, the melting temperature in the data set with HeLa Kyoto [2] (cell cycle stage: G1/S) and in the data set on HeLa Kyoto [2] (cell cycle stage: mitosis) was 49.5 °C in each case. Further, in the data set with HeLa Kyoto [3], the “solubility change mitosis (log2)” value was -0.0997. The thermal stability score in the data set with HeLa Kyoto [4] (setting [5]) was found to be 0.052; in the data set with HeLa Kyoto [4] (cell cycle stage: mitosis), 0.892.
Take “MSQPPPPPPPLPPPPPPPEAPQTPSSLASAAASGGLLKRRDRRILSGSCPDPKCQARLFFPASGSVSIECTECGQRHEQQQLLGVEEVTDPDVVLHNLLRNALLGVTGAPKKNTELVKVMGLSNYHCKLLSPILARYGMDKQTGRAKLLRDMNQGELFDCALLGDRAFLIEPEHVNTVGYGKDRSGSLLYLHDTLEDIKRANKSQECLIPVHVDGDGHCLVHAVSRALVGRELFWHALRENLKQHFQQHLARYQALFHDFIDAAEWEDIINECDPLFVPPEGVPLGLRNIHIFGLANVLHRPIILLDSLSGMRSSGDYSATFLPGLIPAEKCTGKDGHLNKPICIAWSSSGRNHYIPLVGIKGAALPKLPMNLLPKAWGVPQDLIKKYIKLEEDGGCVIGGDRSLQDKYLLRLVAAMEEVFMDKHGIHPSLVADVHQYFYRRTGVIGVQPEEVTAAAKKAVMDNRLHKCLLCGALSELHVPPEWLAPGGKLYNLAKSTHGQLRTDKNYSFPLNNLVCSYDSVKDVLVPDYGMSNLTACNWCHGTSVRKVRGDGSIVYLDGDRTNSRSTGGKCGCGFKHFWDGKEYDNLPEAFPITLEWGGRVVRETVYWFQYESDSSLNSNVYDVAMKLVTKHFPGEFGSEILVQKVVHTILHQTAKKNPDDYTPVNIDGAHAQRVGDVQGQESESQLPTKIILTGQKTKTLHKEELNMSKTERTIQQNITEQASVMQKRKTEKLKQEQKGQPRTVSPSTIRDGPSSAPATPTKAPYSPTTSKEKKIRITTNDGRQSMVTLKSSTTFFELQESIAREFNIPPYLQCIRYGFPPKELMPPQAGMEKEPVPLQHGDRITIEILKSKAEGGQSAAAHSAHTVKQEDIAVTGKLSSKELQEQAEKEMYSLCLLATLMGEDVWSYAKGLPHMFQQGGVFYSIMKKTMGMADGKHCTFPHLPGKTFVYNASEDRLELCVDAAGHFPIGPDVEDLVKEAVSQVRAEATTRSRESSPSHGLLKLGSGGVVKKKSEQLHNVTAFQGKGHSLGTASGNPHLDPRARETSVVRKHNTGTDFSNSSTKTEPSVFTASSSNSELIRIAPGVVTMRDGRQLDPDLVEAQRKKLQEMVSSIQASMDRHLRDQSTEQSPSDLPQRKTEVVSSSAKSGSLQTGLPESFPLTGGTENLNTETTDGCVADALGAAFATRSKAQRGNSVEELEEMDSQDAEMTNTTEPMDHS [VCPIP1]”: in the data set with HeLa Kyoto [1], the “solubility in G1/S (log2)” value was -0.111. For the same sequence, the melting temperature was 48.3 °C with HeLa Kyoto [2] (cell cycle stage: G1/S) and 48.8 °C in the data set on HeLa Kyoto [2] (cell cycle stage: mitosis). Moreover, the “solubility change mitosis (log2)” value in the data set with HeLa Kyoto [3] is -0.0432. Moreover, the results for the thermal stability score in the data set on HeLa Kyoto [4] (setting [5]) and with HeLa Kyoto [4] (cell cycle stage: mitosis) were 1.21 and 1.02, respectively.
Turning to “MSQTAMSETYDFLFKFLVIGNAGTGKSCLLHQFIEKKFKDDSNHTIGVEFGSKIINVGGKYVKLQIWDTAGQERFRSVTRSYYRGAAGALLVYDITSRETYNALTNWLTDARMLASQNIVIILCGNKKDLDADREVTFLEASRFAQENELMFLETSALTGENVEEAFVQCARKILNKIESGELDPERMGSGIQYGDAALRQLRSPRRAQAPNAQECGC [RAB4A]”, in the data set on HeLa Kyoto [1], the “solubility in G1/S (log2)” value was found to be 0.0401. For the same sequence, the figures for the melting temperature with HeLa Kyoto [2] (cell cycle stage: G1/S) and in the data set with HeLa Kyoto [2] (cell cycle stage: mitosis) were 59.5 °C and 57.6 °C, respectively. Further, the “solubility change mitosis (log2)” value in the data set with HeLa Kyoto [3] was -0.0763. Moreover, the thermal stability score in the data set with HeLa Kyoto [4] (setting [5]) is -3.03; in the data set with HeLa Kyoto [4] (cell cycle stage: mitosis) it was -3.68.
“MSRCAQAAEVAATVPGAGVGNVGLRPPMVPRQASFFPPPVPNPFVQQTQIGSARRVQIVLLGIILLPIRVLLVALILLLAWPFAAISTVCCPEKLTHPITGWRRKITQTALKFLGRAMFFSMGFIVAVKGKIASPLEAPVFVAAPHSTFFDGIACVVAGLPSMVSRNENAQVPLIGRLLRAVQPVLVSRVDPDSRKNTINEIIKRTTSGGEWPQILVFPEGTCTNRSCLITFKPGAFIPGVPVQPVLLRYPNKLDTVTWTWQGYTFIQLCMLTFCQLFTKVEVEFMPVQVPNDEEKNDPVLFANKVRNLMAEALGIPVTDHTYEDCRLMISAGQLTLPMEAGLVEFTKISRKLKLDWDGVRKHLDEYASIASSSKGGRIGIEEFAKYLKLPVSDVLRQLFALFDRNHDGSIDFREYVIGLAVLCNPSNTEEIIQVAFKLFDVDEDGYITEEEFSTILQASLGVPDLDVSGLFKEIAQGDSISYEEFKSFALKHPEYAKIFTTYLDLQTCHVFSLPKEVQTTPSTASNKVSPEKHEESTSDKKDD [LPCAT2]”: in the data set with HeLa Kyoto [1], the “solubility in G1/S (log2)” value is -0.00721. For the same sequence, the melting temperature in the data set with HeLa Kyoto [2] (cell cycle stage: G1/S) is 51.3 °C; in the data set with HeLa Kyoto [2] (cell cycle stage: mitosis), 52.5 °C. In addition, the “solubility change mitosis (log2)” value in the data set with HeLa Kyoto [3] is -0.289. In addition, the figures for the thermal stability score with HeLa Kyoto [4] (setting [5]) and with HeLa Kyoto [4] (cell cycle stage: mitosis) were 1.39 and 1.37, respectively.
With “MSRFVQDLSKAMSQDGASQFQEVIRQELELSVKKELEKILTTASSHEFEHTKKDLDGFRKLFHRFLQEKGPSVDWGKIQRPPEDSIQPYEKIKARGLPDNISSVLNKLVVVKLNGGLGTSMGCKGPKSLIGVRNENTFLDLTVQQIEHLNKTYNTDVPLVLMNSFNTDEDTKKILQKYNHCRVKIYTFNQSRYPRINKESLLPVAKDVSYSGENTEAWYPPGHGDIYASFYNSGLLDTFIGEGKEYIFVSNIDNLGATVDLYILNHLMNPPNGKRCEFVMEVTNKTRADVKGGTLTQYEGKLRLVEIAQVPKAHVDEFKSVSKFKIFNTNNLWISLAAVKRLQEQNAIDMEIIVNAKTLDGGLNVIQLETAVGAAIKSFENSLGINVPRSRFLPVKTTSDLLLVMSNLYSLNAGSLTMSEKREFPTVPLVKLGSSFTKVQDYLRRFESIPDMLELDHLTVSGDVTFGKNVSLKGTVIIIANHGDRIDIPPGAVLENKIVSGNLRILDH [UGP2]”, the “solubility in G1/S (log2)” value with HeLa Kyoto [1] amounted to 0.158. Besides, the melting temperature with HeLa Kyoto [2] (cell cycle stage: G1/S) is 55.9 °C; in the data set with HeLa Kyoto [2] (cell cycle stage: mitosis), 56 °C. In addition, in the data set on HeLa Kyoto [3], the “solubility change mitosis (log2)” value is -0.072. Also, the thermal stability score is 0.682 in the data set on HeLa Kyoto [4] (setting [5]) and 0.921 in the data set on HeLa Kyoto [4] (cell cycle stage: mitosis).
Regarding “MSRLGALGGARAGLGLLLGTAAGLGFLCLLYSQRWKRTQRHGRSQSLPNSLDYTQTSDPGRHVMLLRAVPGGAGDASVLPSLPREGQEKVLDRLDFVLTSLVALRREVEELRSSLRGLAGEIVGEVRCHMEENQRVARRRRFPFVRERSDSTGSSSVYFTASSGATFTDAESEGGYTTANAESDNERDSDKESEDGEDEVSCETVKMGRKDSLDLEEEAASGASSALEAGGSSGLEDVLPLLQQADELHRGDEQGKREGFQLLLNNKLVYGSRQDFLWRLARAYSDMCELTEEVSEKKSYALDGKEEAEAALEKGDESADCHLWYAVLCGQLAEHESIQRRIQSGFSFKEHVDKAIALQPENPMAHFLLGRWCYQVSHLSWLEKKTATALLESPLSATVEDALQSFLKAEELQPGFSKAGRVYISKCYRELGKNSEARWWMKLALELPDVTKEDLAIQKDLEELEVILRD [RMDN3]”, in the data set with HeLa Kyoto [1], the “solubility in G1/S (log2)” value is -0.0304. Moreover, the melting temperature in the data set on HeLa Kyoto [2] (cell cycle stage: G1/S) worked out at 51.1 °C; in the data set on HeLa Kyoto [2] (cell cycle stage: mitosis) it was 50.8 °C. Besides, the “solubility change mitosis (log2)” value in the data set with HeLa Kyoto [3] was -0.102. For the same sequence, the figures for the thermal stability score with HeLa Kyoto [4] (setting [5]) and with HeLa Kyoto [4] (cell cycle stage: mitosis) were 0.252 and -0.0237, respectively.

The values are drawn from the supplement of paper PMC5998384.
